How the values were obtained:
[1] = biological target: long carboxyl terminus (CTL) of rat Cav1.3L (rat)
[2] = biological target: long carboxyl terminus (CTL) of rat Cav1.3L (rat); remark: listed apart in the source
[3] = biological target: long carboxyl terminus (CTL) of rat Cav1.3L (rat); remark: listed apart in the source

long carboxyl terminus (CTL) of rat Cav1.3L (rat), sequence (P27732 1460-2155): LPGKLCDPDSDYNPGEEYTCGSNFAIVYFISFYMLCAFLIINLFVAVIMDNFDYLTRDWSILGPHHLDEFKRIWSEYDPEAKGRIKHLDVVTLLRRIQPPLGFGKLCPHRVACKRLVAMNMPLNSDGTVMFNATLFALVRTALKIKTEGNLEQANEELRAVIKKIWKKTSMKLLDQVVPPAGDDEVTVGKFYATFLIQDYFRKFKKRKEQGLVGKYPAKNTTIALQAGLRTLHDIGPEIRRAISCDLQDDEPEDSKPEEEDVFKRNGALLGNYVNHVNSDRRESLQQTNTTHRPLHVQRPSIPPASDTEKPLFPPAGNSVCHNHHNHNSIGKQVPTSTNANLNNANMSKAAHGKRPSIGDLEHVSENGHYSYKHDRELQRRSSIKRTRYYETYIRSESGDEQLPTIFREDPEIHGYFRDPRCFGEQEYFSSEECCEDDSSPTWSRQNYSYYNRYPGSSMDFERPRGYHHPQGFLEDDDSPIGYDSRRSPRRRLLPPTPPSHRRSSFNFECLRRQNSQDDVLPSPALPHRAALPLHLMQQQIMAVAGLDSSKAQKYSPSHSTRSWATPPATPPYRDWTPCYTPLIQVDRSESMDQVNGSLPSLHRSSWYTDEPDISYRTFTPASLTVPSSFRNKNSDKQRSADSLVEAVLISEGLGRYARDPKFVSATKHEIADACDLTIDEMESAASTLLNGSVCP

Row | Molecule | maximal chord conductance of Cav1.3L channels without vs. with Snapin2 in HEK-293 cells [1] | average peak current amplitude at −10 mV of Cav1.3L/β3 with vs. without Snapin2 in Xenopus oocytes [2] | maximal chord conductance of Cav1.3L channels without vs. with Snapin2 in Xenopus oocytes [2] | maximal normalized chord conductance of Cav1.3L without or with Snapin1 in HEK-293 cells [3]
1 | rat Snapin2 (natural protein) | 1.86 nS/pF | -2410 nA | 28.1 μS | –
2 | rat Snapin1 (natural protein) MAAAGSAAVSGAGTPVAGPTGRDLFAEGLLEFLRPAVQQLDSHVHAVRESQVELREQIDNLATELCRINEDQKVALDLDPYVKKLLNARRRVVLVNNILQNAQERLRRLNHSVAKETARRRAMLDSGVYPPGSPSK | – | – | – | 2.09 nS/pF

From PMC8537452
